From paper PMC2886958 (The Journal of General Virology, 2008)

Molecular target: ACE-2–GFP, secreted form of angiotensin converting enzyme-2 fused to green fluorescent protein (UniProt Q9BYF1)
Assay: SPR; format not told in the text (Supplementary Fig. S2)

Sequence of ACE-2–GFP, secreted form of angiotensin converting enzyme-2 fused to green fluorescent protein (Q9BYF1 18-740): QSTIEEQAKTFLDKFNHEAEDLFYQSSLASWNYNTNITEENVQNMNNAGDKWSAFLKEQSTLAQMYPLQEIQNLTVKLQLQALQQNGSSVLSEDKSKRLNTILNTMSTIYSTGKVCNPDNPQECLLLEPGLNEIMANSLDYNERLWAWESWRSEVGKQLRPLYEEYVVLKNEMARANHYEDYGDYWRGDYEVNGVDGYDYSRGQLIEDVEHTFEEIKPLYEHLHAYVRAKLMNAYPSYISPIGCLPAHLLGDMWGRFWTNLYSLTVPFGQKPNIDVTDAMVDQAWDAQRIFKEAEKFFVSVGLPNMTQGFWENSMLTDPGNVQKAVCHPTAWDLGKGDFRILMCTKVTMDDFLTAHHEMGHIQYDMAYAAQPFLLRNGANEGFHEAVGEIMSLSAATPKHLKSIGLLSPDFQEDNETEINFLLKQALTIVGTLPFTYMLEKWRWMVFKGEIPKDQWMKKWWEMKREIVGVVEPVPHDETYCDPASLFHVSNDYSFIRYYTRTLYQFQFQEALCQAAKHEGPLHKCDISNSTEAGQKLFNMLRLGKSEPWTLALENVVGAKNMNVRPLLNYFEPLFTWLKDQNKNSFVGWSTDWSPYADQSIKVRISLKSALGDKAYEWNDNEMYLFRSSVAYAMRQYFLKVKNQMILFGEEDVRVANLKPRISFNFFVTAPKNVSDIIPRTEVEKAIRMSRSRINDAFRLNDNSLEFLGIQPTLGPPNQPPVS

B1: SARS-CoV S1 (residues 19–713), Fc-tagged fusion protein (Fc fusion)
chain: not shown
  Kd: 87.1 nM
